According to patent publication US20260191974A1, “B7-H3 TARGETING LIGANDS AND METHODS OF USE” (The University of North Carolina at Chapel Hill, priority 2022, published 2026):

What was measured:
[1] = molecular target: T1, biotinylated B7-H3 (B7-H3b), immune checkpoint protein; assay: SPR (BIACORE 8K, single-cycle kinetics, 1:1 fit); biotinylated B7-H3 on a NeutrAvidin chip, peptide as analyte at 7.5-120 nM
T1 sequence (Q5ZPR3 whole entry, species assumed, looked up): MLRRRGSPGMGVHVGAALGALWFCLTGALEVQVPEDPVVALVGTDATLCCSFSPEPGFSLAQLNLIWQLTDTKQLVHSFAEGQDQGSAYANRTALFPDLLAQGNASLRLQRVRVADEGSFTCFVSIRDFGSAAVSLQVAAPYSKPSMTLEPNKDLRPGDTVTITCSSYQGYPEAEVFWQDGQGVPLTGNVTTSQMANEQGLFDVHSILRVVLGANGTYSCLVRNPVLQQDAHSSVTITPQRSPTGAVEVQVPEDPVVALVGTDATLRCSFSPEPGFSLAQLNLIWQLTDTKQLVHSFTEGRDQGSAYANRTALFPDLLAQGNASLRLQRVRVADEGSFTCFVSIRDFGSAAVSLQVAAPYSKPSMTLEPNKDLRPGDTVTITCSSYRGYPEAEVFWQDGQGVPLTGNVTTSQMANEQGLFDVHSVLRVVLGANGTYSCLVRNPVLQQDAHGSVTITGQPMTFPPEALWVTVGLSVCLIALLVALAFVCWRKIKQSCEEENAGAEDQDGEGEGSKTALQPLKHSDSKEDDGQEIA

[2] = molecular target: T1, biotinylated B7-H3 (B7-H3b), immune checkpoint protein; assay: SPR, biotinylated B7-H3 on NeutrAvidin chip, peptide as analyte

B1: Met9Nle variant of B1.1 (methionine to norleucine variant of the selected cyclic, disulfide peptide) (peptide)
peptide: WALQLCHSXFYTCKSG
modifications: norleucine (Nle) at position 9; N-terminal acetylation (ac); lactam bridge Q4-K14; disulfide bond C6-C13
Work on B1 yielded a koff [1] of 0.0448 s⁻¹, a kon [1] of 955000 M⁻¹ s⁻¹ and a Kd [2] of 46.9 nM.
